Test [1] deals with T1, human CD47-Fc fusion protein (R&D systems) (human, UniProt Q08722 19-141).
T1 construct: Bought (R&D systems); also called Fc-tagged CD47; not shown: Fc part of the bought fusion protein
Put plainly: ELISA, Fc-tagged CD47 coated on the plate.

In test [2] the target is T1, human CD47-Fc fusion protein (R&D …). In words: ELISA, binding to CD47. On the set-up: Bmax: unit not given here. (In general: In an ELISA, binding on a coated surface is turned into a signal by an enzyme label.)
The target of test [3] is T2, human P Glycoprotein (Pgp) / Multidrug resistance protein 1 (MDR1), gene ABCB1, on cells (human, UniProt P08183 1-1280).
T2 construct: also called KPB1; KBP1
Put plainly: FACS on 293T-B1OX cells (overexpressing MDR1).

Test [4] has as its target T3, cynomolgus CD47 on erythrocytes (cynomolgus, UniProt A0A5F8AK49 19-323 (rhesus entry)).
T3 construct: whole, on cells; also called cynomolgus RBCs
In words: flow cytometry on cynomolgus red blood cells (cy807 RBC), Alexa Fluor 647 channel.

In test [5] the target is T2, human P Glycoprotein (Pgp) / Multidrug …. Put plainly: cell-based or functional assay.
Another test addresses T4, human CD47 on cells (human, UniProt Q08722 19-323).
T4 construct: also called KT14 (target name); leukocyte surface antigen CD47
In words: flow cytometry on human red blood cells (h408 RBC), Alexa Fluor 647 channel. Background: In flow cytometry, cells or beads pass a laser one at a time.

Test [6] addresses T1, human CD47-Fc fusion protein (R&D …). In words: ELISA, plate coated with human CD47-Fc. On the set-up: Bmax: unit not given here.

B1: 15D3 IgG1 KK/5F9 IgG1 DD/UIC2 (bispecific antibody)
chain 1: not shown
chain 2: not shown
chain 3: DVVMTQTPRSLPVSLGDQASISCRSSQSLLHSNGNTYLHWYLQKPGQSPKLLIYKVSNRFSGVPDRFSGSGSGTDFTLKISRVEAEDLGVYFCSQSTHIPPWTFGGGTKLDIKRTVAAPSVFIFPPSDEQLKSGTASVVCLLNNFYPREAKVQWKVDNALQSGNSQESVTEQDSKDSTYSLSSTLTLSKADYEKHKVYACEVTHQGLSSPVTKSFNRGEC
As a reminder, the Kd is the equilibrium constant for the complex coming apart. Turning to B1, in test [1], the Kd was 1620 nM.

B2: 15D3/5F9 (15D3 heavy chain with 5F9 light chain) (antibody, human IgG1, V domains shown)
VH: EVKVVESGGVLVRPGGSLKLSCAASGFTFSRYTMSWVRQTPEKRLEWVATISSGGGNTYYPDSVKGRFTVSRDNAMSSLYLQMSSLRSEDTALYYCARYGAGDAWFAYWGQGTLVTVSA
VL: DIVMTQSPLSLPVTPGEPASISCRSSQSIVYSNGNTYLGWYLQKPGQSPQLLIYKVSNRFSGVPDRFSGSGSGTDFTLKISRVEADVGVYYCFQGSHVPYTFGQGTKLEIK
notes: Light chain shuffle construct; human IgG1 / kappa constant regions
With B2, in test [2], the Bmax is 3.1 and the equilibrium dissociation constant (Kd) was found to be 252 nM.

B3: anti-MDR1 antibody MRK16 (recombinant, human IgG1/Kappa) (antibody, V domains shown)
VH: EVILVESGGGLVKPGGSLKLSCAASGFTFSSYTMSWVRQTPEKRLEWVATISSGGGNTYYPDSVKGRFTISRDNAKNNLYLQMSSLRSEDTALYYCARYYRYEAWFASWGQGTLVTVSA
VL: DVLMTQTPVSLSVSLGDQASISCRSSQSIVHSTGNTYLEWYLQKPGQSPKLLIYKISNRFSGVPDRFSGSGSGTDFTLKISRVEAEDLGVYYCFQASHFPRTFGGGTKLEIK
By EC50 is commonly meant the midpoint of the concentration-response curve. B3: it took 58.8 nM to reach a half-maximal effect in test [3] (EC50). Besides, the “R4 (percent of red blood cells in the positive gate R4)” value in test [4] worked out at 0.801%; in the test with human CD47 on cells, 0.867%. The binding result (in test [4]; in the test with human CD47 on cells) was “no binding” throughout. Moreover, in test [5], the “Vincristine IC50 (nM) on N6/ADR cells with antibody at 50 ug/mL” value was 0.734 nM.

B4: 5F9/15D3 (5F9 heavy chain with 15D3 light chain) (antibody, human IgG1, V domains shown)
VH: QVQLVQSGAEVKKPGASVKVSCKASGYTFTNYNMHWVRQAPGQRLEWMGTIYPGNDDTSYNQKFKDRVTITADTSASTAYMELSSLRSEDTAVYYCARGGYRAMDYWGQGTLVTVSS
VL: DVLMTQTPLSLPVSLGDQASISCRSSQSIVHSTGNTYLEWYLQKPGQSPKLLIYKVSNRFSGVPDRFSGSGSGTDFTLKISRLEAEDLGVYYCFQGSHFPRTFGGGTRLEIK
notes: as for B2
In test [6], B4 showed a Bmax of 2.96 and an equilibrium dissociation constant (Kd) of 0.257 nM.

B5: 5F9/UIC2 (5F9 heavy chain with UIC2 light chain) (antibody, human IgG1, V domains shown)
VH: QVQLVQSGAEVKKPGASVKVSCKASGYTFTNYNMHWVRQAPGQRLEWMGTIYPGNDDTSYNQKFKDRVTITADTSASTAYMELSSLRSEDTAVYYCARGGYRAMDYWGQGTLVTVSS
VL: DVVMTQTPRSLPVSLGDQASISCRSSQSLLHSNGNTYLHWYLQKPGQSPKLLIYKVSNRFSGVPDRFSGSGSGTDFTLKISRVEAEDLGVYFCSQSTHIPPWTFGGGTKLDIK
notes: as for B2
In the case of B5, in test [6], the Bmax stood at 3.08 and the equilibrium dissociation constant (Kd) was determined as 6.3 nM.

B6: 5F9/M89 (5F9 heavy chain with M89 light chain) (antibody, human IgG1, V domains shown)
VH: QVQLVQSGAEVKKPGASVKVSCKASGYTFTNYNMHWVRQAPGQRLEWMGTIYPGNDDTSYNQKFKDRVTITADTSASTAYMELSSLRSEDTAVYYCARGGYRAMDYWGQGTLVTVSS
VL: EIVLTQSPATLSLSPGERATLSCRASQSVGGSYLAWYQQKPGQAPRLLIYGASRRATGIPARFSGSGSGTDFTLTISSLQPEDFASYFCQQTNTFPLTFGGGTKVEIK
notes: as for B2
In the case of B6, in test [6], the Bmax is 4.22 and the Kd is 1510 nM.

B7: 15D3/UIC2 (15D3 heavy chain with UIC2 light chain) (antibody, human IgG1, V domains shown)
VH: EVKVVESGGVLVRPGGSLKLSCAASGFTFSRYTMSWVRQTPEKRLEWVATISSGGGNTYYPDSVKGRFTVSRDNAMSSLYLQMSSLRSEDTALYYCARYGAGDAWFAYWGQGTLVTVSA
VL: DVVMTQTPRSLPVSLGDQASISCRSSQSLLHSNGNTYLHWYLQKPGQSPKLLIYKVSNRFSGVPDRFSGSGSGTDFTLKISRVEAEDLGVYFCSQSTHIPPWTFGGGTKLDIK
notes: as for B2
On to B7, for which, in test [2], the Bmax was 3.45 and the dissociation constant (Kd) is 169 nM.

(Values after US20220204627A1 (WILLIAM ROBERT ARATHOON LIVING TRUST DATED AUGUST 29 2016, published 2022).)
